B1: C-reactive protein (CRP) from human pleural fluid (natural protein, UniProt P02741 19-224, looked up)
chain: QTDMSRKAFVFPKESDTSYVSLKAPLTKPLKAFTVCLHFYTELSSTRGYSIFSYATKRQDNEILIFWSKDIGYSFTVGGSEILFEVPEVTVAPVHICTSWESASGIVEFWVDGKPRVRKSLKKGYTVGAEASIILGQEQDSFGGNFEGSQSLVGDIGNVNMWDFVLSPDEINTIYLGGPFSPNVLNWRALKYEVQGEVFTKPQLWP
notes: C-reactive protein, human, purified from pleural fluid; source: bought: LEE Biosolutions (from human pleural fluid)

How the values were obtained:
[1] = biological target: B1; assay: ELISA; CRP (0.5 ug/well) or BSA coated overnight at 4 C; purified nanobodies 0.5 ug/well (A6, A12, B9, H7) or 0.1 ug/well (E12) in 2% BSA in PBS, 2 h at room temperature; anti-His and anti-mouse HRP, TMB; conditions: both partners purified
[2] = biological target: B1; assay: BLI; Octet K2; CRP (25 nM) in PBS immobilised on aminopropylsilane (APS) tips, blocked with 1% BSA/PBS; nanobodies 10-1200 nM in 0.1% BSA/PBS; 30 C; 1:1 model, global fit; conditions: both partners purified
[3] = biological target: B1; assay: ELISA; CRP (0.5 ug/well) or BSA coated 2 h at 37 C; purified nanobodies 0.5 ug/well (A6, A12, B9, H7) or 0.1 ug/well (E12) in 2% BSA in PBS, 2 h at room temperature; anti-His and anti-mouse HRP, TMB; conditions: both partners purified
[4] = biological target: B1; assay: ELISA; phage screening ELISA: CRP 0.25 ug/well coated overnight at 4 C on MaxiSorp, saturated with 3% BSA-PBS; phages in culture supernatant (100 uL, not normalised) 2 h at room temperature; anti-M13 HRP, TMB, absorbance at 450 nm; ratio of the CRP signal to the BSA control, triplicates; conditions: one partner purified
[5] = biological target: T1, E12 fused to mouse Fc (E12-mFc) (llama); assay: ELISA; short protocol (coating 2 h at 37 C) with CRP 1 to 10 ug/mL; 25 ug/mL E12-mFc; anti-mouse HRP, TMB; triplicate; conditions: both partners purified
T1 construct: as the VHH of m7

[6] = biological target: T2, BSA (Bos taurus, UniProt P02769); assay: electrochemical impedance spectroscopy; gold electrode carrying E12-SpyTag held by SpyCatcher; CRP or BSA in solution; room temperature, 0.1 M KNO3 with 5 mM K3[Fe(CN)6]/K4[Fe(CN)6]; triplicate; conditions: both partners purified
T2 construct: BSA (serum albumin), used as negative control
T2 sequence (P02769 25-607): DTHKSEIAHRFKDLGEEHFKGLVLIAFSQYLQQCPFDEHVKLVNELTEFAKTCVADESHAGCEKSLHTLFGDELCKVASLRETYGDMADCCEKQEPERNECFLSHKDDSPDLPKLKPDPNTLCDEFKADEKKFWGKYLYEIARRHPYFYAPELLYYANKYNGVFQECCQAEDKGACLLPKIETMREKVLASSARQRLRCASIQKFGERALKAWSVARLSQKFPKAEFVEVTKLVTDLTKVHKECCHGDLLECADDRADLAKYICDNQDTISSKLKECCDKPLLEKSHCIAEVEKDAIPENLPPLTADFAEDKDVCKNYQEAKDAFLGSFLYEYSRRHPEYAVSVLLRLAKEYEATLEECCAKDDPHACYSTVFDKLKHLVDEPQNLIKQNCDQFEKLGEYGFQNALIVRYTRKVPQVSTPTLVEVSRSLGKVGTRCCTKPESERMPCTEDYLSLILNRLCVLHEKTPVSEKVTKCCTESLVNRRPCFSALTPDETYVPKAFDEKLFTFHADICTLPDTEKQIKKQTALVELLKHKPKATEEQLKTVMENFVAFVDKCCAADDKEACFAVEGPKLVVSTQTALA

Binder	ELISA signal [1]	Kd [2] [nM]	ELISA signal [3]	Screening ELISA (CRP/BSA Signal) [4]	also measured
anti-CRP nanobody H7 fused to 6xHis-SpyTag (VHH, pET14-derived vector) VHH: EVQLQASGGGLVQAGGSLRLSCAASGRTFSSYATGWYRQAPGKERELVAAISSGGSTYYADSVKGRFTISRDNAKNTVYLQMNSLKAEDTAVYYCAGGRRVGVLIGNEYDYWGQGTLVTVSS	1.47	154	0.904	–	–
anti-CRP nanobody A12 fused to 6xHis-SpyTag (VHH, pET14-derived vector) VHH: EVQLQASGGGLVQAGGSLGLSCAASTRAFSTYAMGWFRQVPGKEREFVAAISSGGSTVYADSVKGRFTISRDNAKNTVYLQMNNLRPEDTAVYYCAARQGIVVRSPTRMDYWGQGTQVTVSS	1.23	122	0.974	–	–
anti-CRP nanobody A12 displayed on phage (VHH, source: E. coli TG1 with M13K07 helper phage, phages in culture supernatant) VHH: EVQLQASGGGLVQAGGSLGLSCAASTRAFSTYAMGWFRQVPGKEREFVAAISSGGSTVYADSVKGRFTISRDNAKNTVYLQMNNLRPEDTAVYYCAARQGIVVRSPTRMDYWGQGTQVTVSS	–	–	–	15.5	–
B1	–	–	–	–	binding result [5]: binds
anti-CRP nanobody B9 displayed on phage (VHH, source: E. coli TG1 with M13K07 helper phage, phages in culture supernatant) VHH: EVQLQASGGGSVQAGGSLRLSCATSGIIFRNNIMTWYRQAPGKNRELVATITTGGSTNYSDSVKGRFTISRDNTKNTVYLQMSNLKPDDTGVYYCNARRNRFLTGSYGQGTQVTVSS	–	–	–	14.6	–
anti-CRP nanobody B9 fused to 6xHis-SpyTag (VHH, pET14-derived vector) VHH: EVQLQASGGGSVQAGGSLRLSCATSGIIFRNNIMTWYRQAPGKNRELVATITTGGSTNYSDSVKGRFTISRDNTKNTVYLQMSNLKPDDTGVYYCNARRNRFLTGSYGQGTQVTVSS	1.56	–	2.28	–	–
anti-CRP nanobody E12 fused to 6xHis-SpyTag (VHH, pET14-derived vector; In the biosensor it was held by SpyCatcher attached to the gold electrode) VHH: EVQLQASGGGLVQAGGSLRLSCAASRRPSSFKVMGWYRQAPGKQRELVARITSGGSTDYADSVKGRFTISRDNAKNTVYLQMNSLEPEDTAVYYCNAYRWGRDNWGQGTQVTVSS	2.84	13	2.6	–	binding result [6]: no binding (tested: 1 μg/mL)
anti-CRP nanobody E12 displayed on phage (VHH, source: E. coli TG1 with M13K07 helper phage, phages in culture supernatant) VHH: EVQLQASGGGLVQAGGSLRLSCAASRRPSSFKVMGWYRQAPGKQRELVARITSGGSTDYADSVKGRFTISRDNAKNTVYLQMNSLEPEDTAVYYCNAYRWGRDNWGQGTQVTVSS	–	–	–	13.3	–
anti-CRP nanobody A6 displayed on phage (VHH, source: E. coli TG1 with M13K07 helper phage, phages in culture supernatant) VHH: EVQLQASGGGLVRPGGSLRLSCAVSGGTLSNYAVGWFRRAPGNQRELVATFTSGGTTLYADSVKGRFTISRDNLKNTVYLQMNSLKPEDTAVYYCAAKPGRASSQATDYDAWGQGTQVTVSS	–	–	–	11.8	–
anti-CRP nanobody A6 fused to 6xHis-SpyTag (VHH, pET14-derived vector) VHH: EVQLQASGGGLVRPGGSLRLSCAVSGGTLSNYAVGWFRRAPGNQRELVATFTSGGTTLYADSVKGRFTISRDNLKNTVYLQMNSLKPEDTAVYYCAAKPGRASSQATDYDAWGQGTQVTVSS	0.476	51	0.231	–	–
anti-CRP nanobody C1 displayed on phage (VHH, source: E. coli TG1 with M13K07 helper phage, phages in culture supernatant) VHH: DVQLQASGGGLVQPGGSLRLSCRAPRMVFRRNVMGWFRQAPGKQRELVAYITNDGVTKYTDSVKGRFTISRDNAENTMYLQMNNLKTEDTAVYYCNVRRVLGIAGYWGQGTQVTVSS	–	–	–	12.5	–
anti-CRP nanobody C10 displayed on phage (VHH, C10 gave no soluble 6xHis-SpyTag construct; source: E. coli TG1 with M13K07 helper phage, phages in culture supernatant) VHH: EVQLQASGGGLVQAGGSLRLSCAASGRTFSNYGMGWFRQAPGKEREFVAAITSGGSTYYRDSVKGRFTISRDNAKNTVYLQMNSLKPDDTAVYYCAASRGVTAIWGSSYDYWGQRTLVTVSS	–	–	–	14.6	–
anti-CRP nanobody A10 displayed on phage (VHH, source: E. coli TG1 with M13K07 helper phage, phages in culture supernatant) VHH: EVQLQASGGGLVQAGGSLRLSCVASRSILSLAVMGWYRQAPGKERELVASITSGGNTNYADVVKGRFIISRDNAKNTVNLQMNTLRPEDTAVYYCSAKSILTGPNHWRQETQVTVSS	–	–	–	12.3	–

— PMC8699515, “Native llama Nanobody Library Panning Performed by Phage and Yeast Display Provides Binders Suitable for C-Reactive Protein Detection” (Biosensors, 2021)
